Assays:
cancer cells = details: known from literature; cited from earlier work
SIRPγ = SIRPγ (Homo sapiens, UniProt Q9P1W8); details: Patent References 1 to 3; cited from earlier work
[1] = tested on: all 10 types of SIRPα variant; details: Patent References 1 to 3; cited from earlier work
SIRPβ1 = SIRPβ1 (Homo sapiens, UniProt O00241); details: Patent References 1 to 3; cited from earlier work
SIRPα V1 = SIRPα V1 (Homo sapiens, UniProt P78324); details: Patent References 1 to 3; cited from earlier work
4T1-hmHER2 cells = experiment: Antitumor study (1); type: in vivo, BALB/c mice; details: single administration, 10 mg/kg, Day 21
Protocol: Individuals having a tumor volume of beyond 3000 mm^3 were humanly killed from an ethical point of view for animal experiments.
The antibody-drug conjugate (1) (Drug-to-Antibody Ratio: 7.6) was diluted with PBS, and a dose of 10 mL/kg was intravenously administered to the tail vein.
To mouse breast cancer cell line 4T1 (CRL-2539) purchased from the American Type Culture Collection, a human/mouse chimera HER2 gene was transfected by use of a lentivirus vector to prepare 4T1-hmHER2 cells, which were put in use. The cells express a human/mouse chimera HER2 protein on the cell membrane. Then, 4T1-hmHER2 cells were suspended in PBS and 1.0×10^6 cells were subcutaneously inoculated into the right axilla of each of the BALB/c mice (Day 0). Four days later, the mice were randomly grouped (Day 4). The antibody-drug conjugate (1) was intravenously administered at a dose of 10 mg/kg on Day 4 and 11 (two times in total) to the tail vein. […] P value was expressed to four decimal places and the results satisfying P<0.05 (two-sided test) were determined as being significant.

CT26.WT-hTROP2 cells = experiment: Antitumor study (2); type: in vivo, BALB/c mice; details: single administration, 10 mg/kg, Day 18
Protocol: Mouse: Female 6-week-old BALB/c mice (BALB/c AnNCrlCrlj) (bred by CHARLES RIVER LABORATORIES JAPAN, INC.) were subjected to experiments. Measurement and calculation formula: the long diameter and short diameter of tumors were measured twice a week with an electronic digital caliper (CD15-CX, manufactured by Mitutoyo Corporation), and the tumor volumes (mm^3) were calculated. The calculation formula is shown below: […] Individuals having a tumor volume of beyond 3000 mm^3 were humanely killed from an ethical point of view for animal experiments. […] An anti-SIRPα antibody (clone: 5C12) was diluted with PBS, and a dose of 10 mL/kg was intraperitoneally administered. […] The cells express a human TROP2 protein on the cell membrane. CT26.WT-hTROP2 cells were suspended in saline, and 2.0×10^6 cells were subcutaneously inoculated into the right axilla of each of the BALB/c mice (Day 0). Seven days later, the mice were randomly grouped (Day 7). […] The anti-SIRPα antibody (clone: 5C12) was intraperitoneally administered at a dose of 10 mg/kg on Day 8, 11 and 13 (three times in total). […] Measurement of the tumor volume was continued until Day 18. […] P value was expressed to four decimal places and the results satisfying P<0.05 (two-sided test) were determined as being significant.

CT26.WT-HER3 cells = experiment: Antitumor study (3); type: in vivo, BALB/c mice; details: single administration, 10 mg/kg, Day 18
Protocol: Mouse: Female 6-week-old BALB/c mice (BALB/c AnNCrlCrlj) (bred by CHARLES RIVER LABORATORIES JAPAN, INC.) were subjected to experiments.
Measurement and calculation formula: the long diameter and short diameter of tumors were measured twice a week with an electronic digital caliper (CD15-CX, manufactured by Mitutoyo Corporation), and the tumor volumes (mm^3) were calculated. The calculation formula is shown below:
Tumor volume (mm^3)=0.5×Long diameter (mm)×[Short diameter (mm)]^2
Individuals having a tumor volume of beyond 3000 mm^3 were humanely killed from an ethical point of view for animal experiments.
The antibody-drug conjugate (3) (Drug-to-Antibody Ratio: 8) and an anti-SIRPα antibody (clone: 5C12) were diluted with PBS, and used for administration.
To mouse colorectal cancer cell line CT26.WT (CRL2638) purchased from the American Type Culture Collection, a human HER3 gene was transfected by use of a lentivirus vector to prepare CT26.WT-HER3 cells, which were put in use. The cells express a human HER3 protein on the cell membrane. CT26.WT-HER3 cells were suspended in saline, and 2.0×10^6 cells were subcutaneously inoculated into the right axilla of each of the BALB/c mice (Day 0). Seven days later, the mice were randomly grouped (Day 7). […] P value was expressed to four decimal places and the results satisfying P<0.05 (two-sided test) were determined as being significant.

mouse SIRPα antigen = target: T1, mouse SIRPα antigen (Mus musculus, UniProt P97797); experiment: Binding affinity to mouse SIRPα antigen
T1 sequence (P97797 32-513): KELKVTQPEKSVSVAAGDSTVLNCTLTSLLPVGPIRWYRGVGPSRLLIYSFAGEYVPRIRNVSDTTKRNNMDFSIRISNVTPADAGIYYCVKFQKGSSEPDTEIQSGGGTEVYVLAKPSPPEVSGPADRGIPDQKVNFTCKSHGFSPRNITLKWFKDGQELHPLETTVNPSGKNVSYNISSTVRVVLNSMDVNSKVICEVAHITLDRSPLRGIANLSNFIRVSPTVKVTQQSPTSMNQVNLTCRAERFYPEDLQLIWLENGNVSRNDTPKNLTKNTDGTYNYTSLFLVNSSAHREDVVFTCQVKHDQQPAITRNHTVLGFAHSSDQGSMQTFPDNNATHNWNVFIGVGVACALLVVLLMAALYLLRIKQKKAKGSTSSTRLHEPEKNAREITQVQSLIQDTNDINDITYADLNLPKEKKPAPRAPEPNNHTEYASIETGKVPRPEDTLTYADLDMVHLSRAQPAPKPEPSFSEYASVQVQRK
Protocol: The lymph node cells and mouse myeloma SP2/0-ag14 cells (ATCC: CRL-1581) were fused in accordance with a polyethylene glycol method. The fused cells were suspended in HAT selective medium and cultured in accordance with the limiting dilution method. The hybridoma colonies that emerged were collected. In this manner, monoclonal hybridomas were prepared. The collected hybridoma colonies were cultured. Using the resultant hybridoma culture supernatant, an antibody-producing hybridoma was screened based on binding activity to a mouse SIRPα protein as an index. In this manner, clone: 5C12 was screened.

Chain of SIRPβ1 (O00241 30-398): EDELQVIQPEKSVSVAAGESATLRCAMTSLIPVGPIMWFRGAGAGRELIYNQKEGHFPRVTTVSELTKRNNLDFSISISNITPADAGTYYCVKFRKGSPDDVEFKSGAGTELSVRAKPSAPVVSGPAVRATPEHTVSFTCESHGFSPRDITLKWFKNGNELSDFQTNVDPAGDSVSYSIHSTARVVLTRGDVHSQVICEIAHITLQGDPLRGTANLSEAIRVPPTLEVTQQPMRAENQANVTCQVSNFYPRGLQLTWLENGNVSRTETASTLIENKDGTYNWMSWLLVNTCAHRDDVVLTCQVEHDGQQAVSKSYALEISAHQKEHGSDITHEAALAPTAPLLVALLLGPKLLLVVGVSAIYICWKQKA
Chain of SIRPγ (Q9P1W8 29-387): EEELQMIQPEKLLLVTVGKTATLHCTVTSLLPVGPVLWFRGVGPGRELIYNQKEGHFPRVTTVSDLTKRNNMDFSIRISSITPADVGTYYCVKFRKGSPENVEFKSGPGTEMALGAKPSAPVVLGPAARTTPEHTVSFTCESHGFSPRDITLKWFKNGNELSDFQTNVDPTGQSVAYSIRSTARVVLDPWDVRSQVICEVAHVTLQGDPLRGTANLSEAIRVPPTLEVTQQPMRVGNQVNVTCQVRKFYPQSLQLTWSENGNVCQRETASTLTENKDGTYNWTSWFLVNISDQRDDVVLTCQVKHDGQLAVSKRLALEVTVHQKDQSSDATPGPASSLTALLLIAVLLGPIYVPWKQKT

Molecule: O=P1(N(CCCl)CCCl)NCCCO1 (stereo not shown) [Cyclophosphamide]
- ICD induction (cancer cells): inducing ICD

Molecule: CC(=O)O[C@@]12CO[C@@H]1C[C@H](O)[C@@]1(C)C(=O)[C@H](O)C3=C(C)[C@@H](OC(=O)[C@H](O)[C@@H](NC(=O)OC(C)(C)C)c4ccccc4)C[C@@](O)([C@@H](OC(=O)c4ccccc4)[C@H]21)C3(C)C [Docetaxel]
- ICD induction (cancer cells): not confirmed to induce ICD

Molecule: CO[C@@]12[C@H](COC(N)=O)C3=C(C(=O)C(C)=C(N)C3=O)N1C[C@@H]1N[C@@H]12 [Mitomycin C]
- ICD induction (cancer cells): not confirmed to induce ICD

Molecule: O=C1[O][Pt]2([NH][C@@H]3CCCC[C@H]3[NH]2)[O]C1=O [Oxaliplatin]
- ICD induction (cancer cells): inducing ICD

Molecule: ADU-1805: anti-SIRPα IgG2 antibody of WO 2018/190719, SEQ ID NO: 28 and 29
- binding to SIRPγ (SIRPγ): binds
- binding to all 10 types of SIRPα variant [1]: binds

Molecule: KWAR23: anti-SIRPα antibody of WO 2018/026600, SEQ ID NO: 26 and 27
- binding to SIRPβ1 (SIRPβ1): binds
- binding to SIRPγ (SIRPγ): binds
- binding to all 10 types of SIRPα variant [1]: binds

Molecule: OSE-172: anti-SIRPα IgG4Pro antibody of WO 2017/178653, SEQ ID NO: 24 and 25
- binding to SIRPα V1 (SIRPα V1): binds
- binding to SIRPβ1 (SIRPβ1): binds

B1: 5C12: rat-derived anti-mouse SIRPα surrogate antibody, heavy and light chain SEQ ID NOs: 30 and 31 (antibody, listed as Mus musculus)
heavy: MKHLWFFLLLVAAPRWVLSEVQLVESGGGLVQPGGSLKLSCAASGFTFSNYDMAWVRQAPTKGLEWVASISTRGGSSYYRDSVKGRFTVSRDNAKSTLYLQMDSLRSEDTATYYCARHPGDYFDYWGQGVMVTVSSAKTTPPSVYPLAPGSAAQTNSMVTLGCLVKGYFPEPVTVTWNSGSLSSGVHTFPAVLQSDLYTLSSSVTVPSSTWPSETVTCNVAHPASSTKVDKKIVPRDCGCKPCICTVPEVSSVFIFPPKPKDVLTITLTPKVTCVVVAISKDDPEVQFSWFVDDVEVHTAQTQPREEQFNSTFRSVSELPIMHQDWLNGKEFKCRVNSAAFPAPIEKTISKTKGRPKAPQVYTIPPPKEQMAKDKVSLTCMITDFFPEDITVEWQWNGQPAENYKNTQPIMDTDGSYFVYSKLNVQKSNWEAGNTFTCSVLHEGLHNHHTEKSLSHSPGK
light: MVLQTQVFISLLLWISGAYGDTVLTQSPALAVSPGERVTISCRASESVSTLIHWYQQKPGQQPKLLIYLTSHLESGVPARFSGSGSGTDFTLTIDPVEADDTATYYCQQSWTHPWTFGGGTKLELKRADAAPTVSIFPPSSEQLTSGGASVVCFLNNFYPKDINVKWKIDGSERQNGVLNSWTDQDSKDSTYSMSSTLTLTKDEYERHNSYTCEATHKTSTSPIVKSFNRNEC
- antitumor effect (tumor volume) compared to the control group (4T1-hmHER2 cells): significantly stronger antitumor effect
- antitumor effect (tumor volume) compared to the control group (CT26.WT-hTROP2 cells): partial antitumor effect
- antitumor effect (tumor volume) compared to the control group (CT26.WT-HER3 cells): no therapeutic effect
- binding affinity to mouse SIRPα antigen compared with that of hD13_H1L3 to a human SIRPα antigen (mouse SIRPα antigen): at the same level
- binding affinity to the mouse SIRPα antigen (mouse SIRPα antigen): high binding affinity

— US20230414778A1, “COMBINATION OF ANTIBODY-DRUG CONJUGATE WITH ANTI-SIRPalpha ANTIBODY” (DAIICHI SANKYO COMPANY, LIMITED, priority 2020, published 2023)
